The record followed here is patent publication US20190367615A1 (BEIJING HANMI PHARM, published 2019).

Experiment [1] has as its target T1, Recombinant human PD-1-Fc (human, UniProt Q15116 25-167, limits assumed).
T1 construct: also called recombinant human PD-1-Fc protein; not shown: Fc part
Kind of experiment: competition ELISA, PD-1-Fc coated, competitor biotin-labeled PD-L1. The protocol: Recombinant human PD-1-Fc was coated on a 96-well high-absorbing ELISA plate with a carbonate buffer solution with pH 9.6, the coating concentration was 1 μg/mL, the coating amount was 100 μL per well, and the coating was carried at 4° C. out overnight. The plate was washed five times with PBST and blocked with 300 μL/well of PBST containing 1% BSA and incubated at 25° C. for 1 hour. The plate was washed five times with PBST. The positive control and the anti-human PD-1 antibody sample were added, 50 μL per well. […] The plate was washed five times with PBST. Then, Streptavidin-HRP (BD Pharmingen, Catalog Number 554066) 1:1000 diluted in PBST containing 1% BSA was added, 100 μL per well, incubated at 25° C. for 1 hour. The plate was washed five times with PBST. 100 μL/well of colorimetric substrate TMB was added and incubated at room temperature for 10 minutes. Color development was terminated by adding 100 μL/well of 1 M H₂SO₄. The absorbance at 450 nm was read on a microplate reader.
For orientation: An ELISA detects its analyte on a solid surface through an enzyme-linked reagent.

Experiment [2] concerns the target T2, Recombinant human PD-1 (Sino Biological Inc., Catalog Number 10377-H08H) (human, UniProt Q15116 25-167).
T2 construct: Bought protein; also called antigen PD-1
The experiment can be described thus: ELISA, human PD-1 coated. The protocol:
Recombinant human PD-1 (purchased from Sino Biological Inc.) was coated on a 96-well high-absorbing ELISA plate with a carbonate buffer solution with pH 9.6, the coating concentration was 1 μg/mL, the coating amount was 100 μL per well, and the coating was carried out at 4° C. overnight. The plate was washed five times with PBST and blocked with 300 μL/well of PBST containing 1% BSA, and then incubated at 25° C. for 1 hour. The plate was washed five times with PBST. […] The plate was washed five times with PBST. Then, horseradish peroxidase-labeled anti-human IgG antibody (Chemicon, Catalog Number AP309P) 1:2000 diluted in PBST containing 1% BSA was added, 100 μL per well, incubated at 25° C. for 1 hour. The plate was washed five times with PBST. 100 μL/well of colorimetric substrate TMB was added and incubated at room temperature for 10 minutes. Color development was terminated by adding 100 μL/well of 1 M H₂SO₄. The absorbance at 450 nm was read on a microplate reader.

T1 sequence (Q15116 25-167 limits assumed): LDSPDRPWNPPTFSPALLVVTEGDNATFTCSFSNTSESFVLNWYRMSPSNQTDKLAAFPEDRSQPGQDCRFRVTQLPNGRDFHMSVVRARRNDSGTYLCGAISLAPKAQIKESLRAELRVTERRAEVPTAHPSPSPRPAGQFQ
T2 sequence (Q15116 25-167 limits assumed): as above

B1: AH00291 (antibody, human IgG4 S228P, kappa)
heavy: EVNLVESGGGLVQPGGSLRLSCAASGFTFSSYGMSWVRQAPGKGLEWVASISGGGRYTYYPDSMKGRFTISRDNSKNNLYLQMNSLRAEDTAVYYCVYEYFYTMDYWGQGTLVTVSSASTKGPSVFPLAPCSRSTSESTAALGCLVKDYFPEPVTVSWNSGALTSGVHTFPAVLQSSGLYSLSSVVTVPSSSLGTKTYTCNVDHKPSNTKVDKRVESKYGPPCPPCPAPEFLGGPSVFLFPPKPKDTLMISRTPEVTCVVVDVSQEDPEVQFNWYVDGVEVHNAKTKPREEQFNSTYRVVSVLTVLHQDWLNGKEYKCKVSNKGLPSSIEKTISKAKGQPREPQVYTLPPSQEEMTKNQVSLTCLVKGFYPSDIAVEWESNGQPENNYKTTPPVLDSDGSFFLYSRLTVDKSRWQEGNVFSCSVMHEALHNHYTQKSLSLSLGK
light: DIVLTQSPATLSLSPGERATLSCRANQSISNNLHWYQQKPGQAPRLLIRFASQSISGIPARFSGSGSGTDFTLTISSLEPEDFAVYFCQQSDNWPLTFGGGTKVEIKRTVAAPSVFIFPPSDEQLKSGTASVVCLLNNFYPREAKVQWKVDNALQSGNSQESVTEQDSKDSTYSLSSTLTLSKADYEKHKVYACEVTHQGLSSPVTKSFNRGEC
notes: also called humanized anti-human PD-1 monoclonal antibody AH00291
In the case of B1, the IC50 – broadly, the concentration at which inhibition is half-maximal – in experiment [1] came out at 1.1 nM. Further, the EC50 – broadly, the concentration giving half of the maximal effect – in experiment [2] is 0.025 nM.

B2: AH00296-N26S (antibody, human IgG4 S228P, kappa, V domains shown)
VH: EVNLVESGGGLVQPGGSLRLSCAASGFTFSSYGMSWVRQAPGKGLEWVASISGGGRYTYYPDSMKGRFTISRDNSKNTLYLQMNSLRAEDTAVYYCVYEYFYTMDYWGQGTLVTVSS
VL: DIVLTQSPATLSLSPGERATLSCRASQSISNNLHWYQQKPGQAPRLLIRFASQSISGIPARFSGSGSGTDFTLTISSLEPEDFAVYFCQQSDNWPLTFGGGTKVEIKR
notes: also called AII00296-N26S
Take B2: in experiment [1], the IC50 was found to be 1.07 nM. Moreover, in experiment [2], the EC50 was found to be 0.037 nM.

B3: AH00291-N26S (antibody, human IgG4 S228P, kappa)
heavy: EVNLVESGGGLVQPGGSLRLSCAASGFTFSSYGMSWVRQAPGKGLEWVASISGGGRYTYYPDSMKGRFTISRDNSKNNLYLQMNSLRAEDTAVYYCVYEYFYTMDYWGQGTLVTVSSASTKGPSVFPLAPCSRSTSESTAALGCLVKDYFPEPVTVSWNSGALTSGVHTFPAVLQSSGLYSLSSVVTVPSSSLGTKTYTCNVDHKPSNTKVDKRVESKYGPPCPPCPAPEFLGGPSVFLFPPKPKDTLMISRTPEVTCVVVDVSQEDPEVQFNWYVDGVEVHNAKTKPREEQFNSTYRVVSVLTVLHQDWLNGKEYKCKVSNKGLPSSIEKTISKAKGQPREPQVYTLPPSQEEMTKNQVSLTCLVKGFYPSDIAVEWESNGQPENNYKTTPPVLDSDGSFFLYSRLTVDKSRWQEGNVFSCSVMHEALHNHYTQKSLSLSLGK
light: DIVLTQSPATLSLSPGERATLSCRASQSISNNLHWYQQKPGQAPRLLIRFASQSISGIPARFSGSGSGTDFTLTISSLEPEDFAVYFCQQSDNWPLTFGGGTKVEIKRTVAAPSVFIFPPSDEQLKSGTASVVCLLNNFYPREAKVQWKVDNALQSGNSQESVTEQDSKDSTYSLSSTLTLSKADYEKHKVYACEVTHQGLSSPVTKSFNRGEC
Take B3: the 50% inhibitory concentration (IC50) in experiment [1] came to 1.43 nM. In experiment [2], the concentration for a half-maximal effect (EC50) was 0.039 nM.

B4: AH00294-N26S (antibody, human IgG4 S228P, kappa)
heavy: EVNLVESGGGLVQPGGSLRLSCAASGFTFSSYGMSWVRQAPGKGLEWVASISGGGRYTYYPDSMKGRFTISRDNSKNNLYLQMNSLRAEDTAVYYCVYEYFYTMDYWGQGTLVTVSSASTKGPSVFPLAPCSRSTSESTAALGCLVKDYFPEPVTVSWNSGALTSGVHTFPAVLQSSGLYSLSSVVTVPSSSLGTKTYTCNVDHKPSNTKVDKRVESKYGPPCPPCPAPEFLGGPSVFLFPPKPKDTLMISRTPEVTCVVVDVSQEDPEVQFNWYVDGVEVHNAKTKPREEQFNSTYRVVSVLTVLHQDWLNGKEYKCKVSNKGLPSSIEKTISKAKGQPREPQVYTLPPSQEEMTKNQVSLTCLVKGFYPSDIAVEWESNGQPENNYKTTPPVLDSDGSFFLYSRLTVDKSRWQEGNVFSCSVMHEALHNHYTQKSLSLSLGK
light: DVVLTQSPATLSLSPGERATLSCRASQSISNNLHWYQQKPGQAPRLLIRFASQSISGIPARFSGSGSGTDFTLTISSLEPEDFAVYFCQQSDNWPLTFGGGTKVEIKRTVAAPSVFIFPPSDEQLKSGTASVVCLLNNFYPREAKVQWKVDNALQSGNSQESVTEQDSKDSTYSLSSTLTLSKADYEKHKVYACEVTHQGLSSPVTKSFNRGEC
For B4, the 50% inhibitory concentration (IC50) in experiment [1] amounted to 1.48 nM. Besides, in experiment [2], the concentration giving a half-maximal response (EC50) worked out at 0.043 nM.

B5: AH00296-S28A (antibody, human IgG4 S228P, kappa, V domains shown)
VH: EVNLVESGGGLVQPGGSLRLSCAASGFTFSSYGMSWVRQAPGKGLEWVASISGGGRYTYYPDSMKGRFTISRDNSKNTLYLQMNSLRAEDTAVYYCVYEYFYTMDYWGQGTLVTVSS
VL: DIVLTQSPATLSLSPGERATLSCRANQAISNNLHWYQQKPGQAPRLLIRFASQSISGIPARFSGSGSGTDFTLTISSLEPEDFAVYFCQQSDNWPLTFGGGTKVEIKR
Turning to B5, the IC50 in experiment [1] worked out at 1.75 nM. In experiment [2], the half-maximal effective concentration (EC50) is 0.048 nM.

B6: AH00291-S28A (antibody, human IgG4 S228P, kappa)
heavy: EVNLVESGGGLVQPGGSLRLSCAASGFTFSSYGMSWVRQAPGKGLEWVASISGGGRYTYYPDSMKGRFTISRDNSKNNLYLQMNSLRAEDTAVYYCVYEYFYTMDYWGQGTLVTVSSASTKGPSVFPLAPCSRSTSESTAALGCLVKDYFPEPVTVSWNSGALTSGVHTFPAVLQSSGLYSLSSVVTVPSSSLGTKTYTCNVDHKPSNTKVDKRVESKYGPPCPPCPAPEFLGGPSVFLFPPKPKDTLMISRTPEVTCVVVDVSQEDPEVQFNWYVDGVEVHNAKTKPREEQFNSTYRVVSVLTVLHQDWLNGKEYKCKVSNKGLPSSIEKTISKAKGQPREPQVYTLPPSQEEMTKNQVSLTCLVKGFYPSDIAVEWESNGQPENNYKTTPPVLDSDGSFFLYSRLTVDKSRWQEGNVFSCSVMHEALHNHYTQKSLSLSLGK
light: DIVLTQSPATLSLSPGERATLSCRANQAISNNLHWYQQKPGQAPRLLIRFASQSISGIPARFSGSGSGTDFTLTISSLEPEDFAVYFCQQSDNWPLTFGGGTKVEIKRTVAAPSVFIFPPSDEQLKSGTASVVCLLNNFYPREAKVQWKVDNALQSGNSQESVTEQDSKDSTYSLSSTLTLSKADYEKHKVYACEVTHQGLSSPVTKSFNRGEC
Take B6: the IC50 in experiment [1] is 1.36 nM. In addition, in experiment [2], the EC50 was determined as 0.042 nM.

B7: AH00290 (antibody, human IgG4 S228P, kappa, V domains shown)
VH: EVNLVESGGGLVQPGGSLRLSCAASGFTFSSYGMSWVRQAPGKGLEWVSSISGGGRYTYYPDSMKGRFTISRDNSKNTLYLQMNSLRAEDTAVYYCVYEYFYTMDYWGQGTLVTVSS
VL: DIVLTQSPATLSLSPGERATLSCRANQSISNNLHWYQQKPGQAPRLLIRFASQSISGIPARFSGSGSGTDFTLTISSLEPEDFAVYFCQQSDNWPLTFGGGTKVEIKR
notes: also called humanized anti-human PD-1 monoclonal antibody AH00290
Regarding B7, the IC50 in experiment [1] came to 1.09 nM. The EC50 in experiment [2] was found to be 0.024 nM.

B8: AH00296 (antibody, human IgG4 S228P, kappa)
heavy: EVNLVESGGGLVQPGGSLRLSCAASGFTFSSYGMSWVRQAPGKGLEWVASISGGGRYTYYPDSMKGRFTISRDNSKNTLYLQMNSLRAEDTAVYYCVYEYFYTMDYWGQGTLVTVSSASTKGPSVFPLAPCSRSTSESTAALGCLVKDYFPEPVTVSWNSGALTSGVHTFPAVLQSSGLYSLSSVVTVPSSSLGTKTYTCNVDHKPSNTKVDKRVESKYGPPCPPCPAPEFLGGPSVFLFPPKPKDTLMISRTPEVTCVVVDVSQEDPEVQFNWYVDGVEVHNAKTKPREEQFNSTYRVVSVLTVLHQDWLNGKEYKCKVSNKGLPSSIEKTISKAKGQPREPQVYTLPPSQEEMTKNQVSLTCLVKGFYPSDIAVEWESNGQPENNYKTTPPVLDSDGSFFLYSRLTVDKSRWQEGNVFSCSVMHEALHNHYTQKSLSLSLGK
light: DIVLTQSPATLSLSPGERATLSCRANQSISNNLHWYQQKPGQAPRLLIRFASQSISGIPARFSGSGSGTDFTLTISSLEPEDFAVYFCQQSDNWPLTFGGGTKVEIKRTVAAPSVFIFPPSDEQLKSGTASVVCLLNNFYPREAKVQWKVDNALQSGNSQESVTEQDSKDSTYSLSSTLTLSKADYEKHKVYACEVTHQGLSSPVTKSFNRGEC
notes: also called humanized anti-human PD-1 monoclonal antibody AH00296
As for B8, in experiment [1], the half-inhibitory concentration (IC50) is 1.21 nM. Besides, the EC50 in experiment [2] came out at 0.027 nM.

B9: AH00293 (antibody, human IgG4 S228P, kappa, V domains shown)
VH: EVNLVESGGGLVQPGGSLRLSCAASGFTFSSYGMSWVRQAPGKGLEWVASISGGGRYTYYPDSMKGRFTISRDNSKNNLYLQMNSLRAEDTAVYYCVYEYFYTMDYWGQGTLVTVSS
VL: DIVLTQSPATLSLSPGERATLSCRANQSISNNLHWYQQKPGQAPRLLIRFASQSISGIPARFSGSGSGTDFTLTISSLEPEDFAVYYCQQSDNWPLTFGGGTKVEIKR
notes: also called humanized anti-human PD-1 monoclonal antibody AH00293
With B9, in experiment [1], the IC50 was determined as 1.2 nM. In experiment [2], the concentration for a half-maximal effect (EC50) amounted to 0.026 nM.

B10: AH00296-N26Q (antibody, human IgG4 S228P, kappa, V domains shown)
VH: EVNLVESGGGLVQPGGSLRLSCAASGFTFSSYGMSWVRQAPGKGLEWVASISGGGRYTYYPDSMKGRFTISRDNSKNTLYLQMNSLRAEDTAVYYCVYEYFYTMDYWGQGTLVTVSS
VL: DIVLTQSPATLSLSPGERATLSCRAQQSISNNLHWYQQKPGQAPRLLIRFASQSISGIPARFSGSGSGTDFTLTISSLEPEDFAVYFCQQSDNWPLTFGGGTKVEIKR
For B10, the concentration for half-maximal inhibition (IC50) in experiment [1] was found to be 1.27 nM. The 50% effective concentration (EC50) in experiment [2] turned out to be 0.044 nM.

B11: BMIII (antibody, human IgG4 S228P, kappa, V domains shown)
VH: EVNLVESGGGLVQPGGSLRLSCAASGFTFSSYGMSWVRQTPGKGLEWVASISGGGRYTYYPDSMKGRFTISRDNSKNNLYLQMNSLRAEDTAVYYCVYEYFYTMDYWGQGTLVTVSS
VL: DVVLTQSPATLSVSPGERVTLSCRANQSISNNLHWYQQKPGQSPRLLIRFASQSISGIPARFSGSGSGTDFTLTISSVEPEDFGVYFCQQSDNWPLTFGGGTKLEIKR
In the case of B11, the half-maximal inhibitory concentration (IC50) in experiment [1] turned out to be 1.2 nM. Further, the concentration giving a half-maximal response (EC50) in experiment [2] came out at 0.034 nM.

B12: AH00298 (antibody, human IgG4 S228P, kappa)
heavy: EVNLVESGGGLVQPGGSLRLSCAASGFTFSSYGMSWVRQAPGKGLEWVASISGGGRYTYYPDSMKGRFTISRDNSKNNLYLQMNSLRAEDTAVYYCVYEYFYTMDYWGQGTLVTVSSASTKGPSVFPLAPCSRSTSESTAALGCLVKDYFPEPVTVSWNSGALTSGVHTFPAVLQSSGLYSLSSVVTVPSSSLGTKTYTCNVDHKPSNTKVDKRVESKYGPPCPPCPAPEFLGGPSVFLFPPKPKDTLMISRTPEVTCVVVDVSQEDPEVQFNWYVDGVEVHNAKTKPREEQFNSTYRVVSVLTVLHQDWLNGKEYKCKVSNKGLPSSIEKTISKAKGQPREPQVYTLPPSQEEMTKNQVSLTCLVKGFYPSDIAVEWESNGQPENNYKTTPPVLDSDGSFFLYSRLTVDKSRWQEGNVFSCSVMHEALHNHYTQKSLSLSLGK
light: EVVLTQSPATLSLSPGERATLSCRANQSISNNLHWYQQKPGQAPRLLIRFASQSISGIPARFSGSGSGTDFTLTISSLEPEDFAVYFCQQSDNWPLTFGGGTKVEIKRTVAAPSVFIFPPSDEQLKSGTASVVCLLNNFYPREAKVQWKVDNALQSGNSQESVTEQDSKDSTYSLSSTLTLSKADYEKHKVYACEVTHQGLSSPVTKSFNRGEC
notes: also called humanized anti-human PD-1 monoclonal antibody AH00298
Turning to B12, the IC50 in experiment [1] came to 1.22 nM. Also, in experiment [2], the half-maximal effective concentration (EC50) came out at 0.028 nM.

B13: AH00294-S28A (antibody, human IgG4 S228P, kappa)
heavy: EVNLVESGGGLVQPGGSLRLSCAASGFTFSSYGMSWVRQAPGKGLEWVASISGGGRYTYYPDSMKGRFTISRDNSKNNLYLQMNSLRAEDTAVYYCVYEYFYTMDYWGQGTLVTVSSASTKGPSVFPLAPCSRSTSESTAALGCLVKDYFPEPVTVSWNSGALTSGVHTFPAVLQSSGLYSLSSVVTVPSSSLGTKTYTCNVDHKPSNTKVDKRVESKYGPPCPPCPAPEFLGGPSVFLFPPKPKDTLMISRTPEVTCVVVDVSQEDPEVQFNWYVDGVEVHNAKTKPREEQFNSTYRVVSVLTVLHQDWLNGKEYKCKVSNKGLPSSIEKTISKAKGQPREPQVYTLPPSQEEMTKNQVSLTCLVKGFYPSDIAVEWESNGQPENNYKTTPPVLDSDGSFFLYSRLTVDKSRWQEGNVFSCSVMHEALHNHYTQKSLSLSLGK
light: DVVLTQSPATLSLSPGERATLSCRANQAISNNLHWYQQKPGQAPRLLIRFASQSISGIPARFSGSGSGTDFTLTISSLEPEDFAVYFCQQSDNWPLTFGGGTKVEIKRTVAAPSVFIFPPSDEQLKSGTASVVCLLNNFYPREAKVQWKVDNALQSGNSQESVTEQDSKDSTYSLSSTLTLSKADYEKHKVYACEVTHQGLSSPVTKSFNRGEC
Consider B13, for which the half-inhibitory concentration (IC50) in experiment [1] stood at 1.46 nM. Further, the EC50 in experiment [2] was 0.047 nM.

B14: AH00295 (antibody, human IgG4 S228P, kappa)
heavy: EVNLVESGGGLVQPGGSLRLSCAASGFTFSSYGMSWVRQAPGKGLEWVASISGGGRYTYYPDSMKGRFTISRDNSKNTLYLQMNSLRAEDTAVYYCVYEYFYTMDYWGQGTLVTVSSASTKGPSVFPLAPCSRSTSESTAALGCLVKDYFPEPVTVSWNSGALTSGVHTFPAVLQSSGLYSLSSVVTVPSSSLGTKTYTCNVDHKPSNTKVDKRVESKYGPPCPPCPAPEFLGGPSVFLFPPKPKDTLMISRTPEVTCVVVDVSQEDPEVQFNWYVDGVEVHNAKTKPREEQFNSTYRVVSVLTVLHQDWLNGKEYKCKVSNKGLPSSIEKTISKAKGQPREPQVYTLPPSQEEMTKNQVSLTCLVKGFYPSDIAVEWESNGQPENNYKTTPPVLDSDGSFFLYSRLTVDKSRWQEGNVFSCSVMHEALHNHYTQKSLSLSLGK
light: EVVLTQSPATLSLSPGERATLSCRANQSISNNLHWYQQKPGQAPRLLIRFASQSISGIPARFSGSGSGTDFTLTISSLEPEDFAVYFCQQSDNWPLTFGGGTKVEIKRTVAAPSVFIFPPSDEQLKSGTASVVCLLNNFYPREAKVQWKVDNALQSGNSQESVTEQDSKDSTYSLSSTLTLSKADYEKHKVYACEVTHQGLSSPVTKSFNRGEC
notes: also called humanized anti-human PD-1 monoclonal antibody AH00295
With B14, the IC50 in experiment [1] was determined as 1.19 nM. In addition, the EC50 in experiment [2] was found to be 0.025 nM.

B15: AH00294-N26Q (antibody, human IgG4 S228P, kappa)
heavy: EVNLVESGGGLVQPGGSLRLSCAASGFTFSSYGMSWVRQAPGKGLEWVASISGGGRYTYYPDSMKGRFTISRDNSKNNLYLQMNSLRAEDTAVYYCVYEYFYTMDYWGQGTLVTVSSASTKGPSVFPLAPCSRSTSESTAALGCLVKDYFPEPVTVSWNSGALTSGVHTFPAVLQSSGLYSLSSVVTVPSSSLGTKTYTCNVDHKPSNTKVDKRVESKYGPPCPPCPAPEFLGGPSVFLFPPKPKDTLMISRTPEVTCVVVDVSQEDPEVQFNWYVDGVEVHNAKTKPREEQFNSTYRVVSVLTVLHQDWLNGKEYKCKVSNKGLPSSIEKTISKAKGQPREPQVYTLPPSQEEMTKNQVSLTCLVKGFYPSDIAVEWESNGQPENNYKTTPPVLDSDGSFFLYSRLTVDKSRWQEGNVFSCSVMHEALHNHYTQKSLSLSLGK
light: DVVLTQSPATLSLSPGERATLSCRAQQSISNNLHWYQQKPGQAPRLLIRFASQSISGIPARFSGSGSGTDFTLTISSLEPEDFAVYFCQQSDNWPLTFGGGTKVEIKRTVAAPSVFIFPPSDEQLKSGTASVVCLLNNFYPREAKVQWKVDNALQSGNSQESVTEQDSKDSTYSLSSTLTLSKADYEKHKVYACEVTHQGLSSPVTKSFNRGEC
B15: the IC50 in experiment [1] came to 1.49 nM. Also, the 50% effective concentration (EC50) in experiment [2] amounted to 0.041 nM.

B16: AH00294 (antibody, human IgG4 S228P, kappa)
heavy: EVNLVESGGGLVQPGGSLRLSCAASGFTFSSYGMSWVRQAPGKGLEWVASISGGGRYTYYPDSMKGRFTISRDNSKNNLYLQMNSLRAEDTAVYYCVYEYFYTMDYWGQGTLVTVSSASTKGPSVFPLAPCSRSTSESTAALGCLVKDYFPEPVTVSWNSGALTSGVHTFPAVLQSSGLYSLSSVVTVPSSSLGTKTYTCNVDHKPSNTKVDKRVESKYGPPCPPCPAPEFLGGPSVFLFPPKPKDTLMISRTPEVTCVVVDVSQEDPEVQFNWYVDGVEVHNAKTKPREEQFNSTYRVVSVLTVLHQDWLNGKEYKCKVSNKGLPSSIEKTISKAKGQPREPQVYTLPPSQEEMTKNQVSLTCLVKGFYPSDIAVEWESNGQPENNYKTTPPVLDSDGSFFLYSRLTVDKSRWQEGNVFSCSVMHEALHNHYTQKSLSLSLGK
light: DVVLTQSPATLSLSPGERATLSCRANQSISNNLHWYQQKPGQAPRLLIRFASQSISGIPARFSGSGSGTDFTLTISSLEPEDFAVYFCQQSDNWPLTFGGGTKVEIKRTVAAPSVFIFPPSDEQLKSGTASVVCLLNNFYPREAKVQWKVDNALQSGNSQESVTEQDSKDSTYSLSSTLTLSKADYEKHKVYACEVTHQGLSSPVTKSFNRGEC
notes: also called humanized anti-human PD-1 monoclonal antibody AH00294
For B16, in experiment [1], the IC50 turned out to be 1.35 nM. In addition, the concentration giving a half-maximal response (EC50) in experiment [2] was determined as 0.032 nM.

B17: AH00291-N26Q (antibody, human IgG4 S228P, kappa)
heavy: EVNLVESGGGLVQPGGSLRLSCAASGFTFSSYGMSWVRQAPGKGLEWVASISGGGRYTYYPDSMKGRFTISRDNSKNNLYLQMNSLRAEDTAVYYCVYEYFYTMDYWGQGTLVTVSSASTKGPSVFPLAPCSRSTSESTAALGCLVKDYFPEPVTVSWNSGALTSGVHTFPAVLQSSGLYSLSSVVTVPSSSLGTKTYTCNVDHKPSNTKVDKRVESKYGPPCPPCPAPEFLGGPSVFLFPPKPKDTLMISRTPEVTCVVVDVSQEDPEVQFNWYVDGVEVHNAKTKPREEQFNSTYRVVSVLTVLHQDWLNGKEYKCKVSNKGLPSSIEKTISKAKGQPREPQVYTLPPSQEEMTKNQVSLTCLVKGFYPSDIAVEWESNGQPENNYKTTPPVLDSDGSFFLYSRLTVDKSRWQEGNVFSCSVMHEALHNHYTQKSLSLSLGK
light: DIVLTQSPATLSLSPGERATLSCRAQQSISNNLHWYQQKPGQAPRLLIRFASQSISGIPARFSGSGSGTDFTLTISSLEPEDFAVYFCQQSDNWPLTFGGGTKVEIKRTVAAPSVFIFPPSDEQLKSGTASVVCLLNNFYPREAKVQWKVDNALQSGNSQESVTEQDSKDSTYSLSSTLTLSKADYEKHKVYACEVTHQGLSSPVTKSFNRGEC
B17: the 50% inhibitory concentration (IC50) in experiment [1] stood at 1.57 nM. The EC50 in experiment [2] stood at 0.046 nM.
